Publication PMC7212365

Assays:
[1] = biological target: Dimeric HER2 binding IgA1 produced in HEK293F cells (human) (UniProt P01591); test: SPR; Biacore T200; IgA variants immobilized on a Protein L sensor chip; five increasing concentrations of FcαRI injected in single-cycle kinetic experiments; 1:1 binding model; three independent kinetic runs
[2] = biological target: Dimeric HER2 binding IgA1 produced in N. benthamiana ΔXT/FT (human) (UniProt P01591); test: as above
[3] = biological target: Dimeric HER2 binding IgA2m(2) produced in HEK293F cells (human) (UniProt P01591); test: as above
[4] = biological target: Dimeric HER2 binding IgA2m(2) produced in N. benthamiana ΔXT/FT (human) (UniProt P01591); test: as above
[5] = biological target: Monomeric HER2 binding IgA1 produced in HEK293F cells (human); test: as above
[6] = biological target: Monomeric HER2 binding IgA1 produced in N. benthamiana ΔXT/FT (human); test: as above
[7] = biological target: Monomeric HER2 binding IgA2m(2) produced in HEK293F cells (human); test: as above
[8] = biological target: Monomeric HER2 binding IgA2m(2) produced in N. benthamiana ΔXT/FT (human); test: as above
[9] = biological target: HER2 binding dimeric IgA1 produced in HEK293F cells (human) (UniProt P01591); test: SPR; Biacore T200; IgA variants immobilised on a Protein L sensor chip with the Fc-domain pointing toward the solution; five increasing concentrations of FcαRI injected in single-cycle kinetic experiments; 1:1 binding model; three independent kinetic runs
[10] = biological target: HER2 binding dimeric IgA1 produced in N. benthamiana ΔXT/FT plants (human) (UniProt P01591); test: as above
[11] = biological target: HER2 binding dimeric IgA2m(2) produced in HEK293F cells (human) (UniProt P01591); test: as above
[12] = biological target: HER2 binding dimeric IgA2m(2) produced in N. benthamiana ΔXT/FT plants (human) (UniProt P01591); test: as above
[13] = biological target: HER2 binding monomeric IgA1 produced in HEK293F cells (human); test: as above
[14] = biological target: HER2 binding monomeric IgA1 produced in N. benthamiana ΔXT/FT plants (human); test: as above
[15] = biological target: HER2 binding monomeric IgA2m(2) produced in HEK293F cells (human); test: as above
[16] = biological target: HER2 binding monomeric IgA2m(2) produced in N. benthamiana ΔXT/FT plants (human); test: as above

**Q.** “Recombinant soluble FcαRI (from UniProt P24071 22-227) (receptor)” was tested. Which Kd [1] did it give?
**A.** 0.144 µM

**Q.** And the koff [1]?
**A.** 0.055 s⁻¹

**Q.** What about the kon [1] of the same substance?
**A.** 360000 M⁻¹ s⁻¹

**Q.** And the Kd [2]?
**A.** 0.151 µM

**Q.** What about the koff [2] of the same substance?
**A.** 0.057 s⁻¹

**Q.** What about the kon [2] of the same substance?
**A.** 370000 M⁻¹ s⁻¹

**Q.** What about the Kd [3] of the same substance?
**A.** 0.182 µM

**Q.** And the koff [3]?
**A.** 0.049 s⁻¹

**Q.** And the kon [3]?
**A.** 260000 M⁻¹ s⁻¹

**Q.** What about the Kd [4] of the same substance?
**A.** 0.226 µM

**Q.** What about the koff [4] of the same substance?
**A.** 0.049 s⁻¹

**Q.** What about the kon [4] of the same substance?
**A.** 270000 M⁻¹ s⁻¹

**Q.** And the Kd [5]?
**A.** 0.109 µM

**Q.** What about the koff [5] of the same substance?
**A.** 0.05 s⁻¹

**Q.** And the kon [5]?
**A.** 440000 M⁻¹ s⁻¹

**Q.** What about the Kd [6] of the same substance?
**A.** 0.103 µM

**Q.** And the koff [6]?
**A.** 0.061 s⁻¹

**Q.** And the kon [6]?
**A.** 580000 M⁻¹ s⁻¹

**Q.** And the Kd [7]?
**A.** 0.157 µM

**Q.** And the koff [7]?
**A.** 0.05 s⁻¹

**Q.** And the kon [7]?
**A.** 310000 M⁻¹ s⁻¹

**Q.** What about the Kd [8] of the same substance?
**A.** 0.16 µM

**Q.** And the koff [8]?
**A.** 0.055 s⁻¹

**Q.** And the kon [8]?
**A.** 340000 M⁻¹ s⁻¹

**Q.** And the stoichiometry N [9]?
**A.** 1

**Q.** What about the stoichiometry N [10] of the same substance?
**A.** 1

**Q.** And the stoichiometry N [11]?
**A.** 1

**Q.** And the stoichiometry N [12]?
**A.** 1

**Q.** What about the Kd [13] of the same substance?
**A.** 0.11 µM

**Q.** And the stoichiometry N [13]?
**A.** 1

**Q.** And the Kd [14]?
**A.** 0.11 µM

**Q.** And the stoichiometry N [14]?
**A.** 1

**Q.** And the Kd [15]?
**A.** 0.17 µM

**Q.** What about the stoichiometry N [15] of the same substance?
**A.** 1

**Q.** What about the Kd [16] of the same substance?
**A.** 0.17 µM

**Q.** And the stoichiometry N [16]?
**A.** 1
